{"source": "patent US10766952B2", "about": "“Methods for reducing migraine frequency in a subject in need thereof” (Beth Israel Deaconess Medical Center, Inc., priority 2017, dated 2020)", "molecules": {"B1": {"name": "fremanezumab (antibody)", "heavy": "EVQLVESGGGLVQPGGSLRLSCAASGFTFSNYWISWVRQAPGKGLEWVAEIRSESDASATHYAEAVKGRFTISRDNAKNSLYLQMNSLRAEDTAVYYCLAYFDYGLAIQNYWGQGTLVTVSSASTKGPSVFPLAPCSRSTSESTAALGCLVKDYFPEPVTVSWNSGALTSGVHTFPAVLQSSGLYSLSSVVTVPSSNFGTQTYTCNVDHKPSNTKVDKTVERKCCVECPPCPAPPVAGPSVFLFPPKPKDTLMISRTPEVTCVVVDVSHEDPEVQFNWYVDGVEVHNAKTKPREEQFNSTFRVVSVLTVVHQDWLNGKEYKCKVSNKGLPSSIEKTISKTKGQPREPQVYTLPPSREEMTKNQVSLTCLVKGFYPSDIAVEWESNGQPENNYKTTPPMLDSDGSFFLYSKLTVDKSRWQQGNVFSCSVMHEALHNHYTQKSLSLSPGK", "light": "EIVLTQSPATLSLSPGERATLSCKASKRVTTYVSWYQQKPGQAPRLLIYGASNRYLGIPARFSGSGSGTDFTLTISSLEPEDFAVYYCSQSYNYPYTFGQGTKLEIKRTVAAPSVFIFPPSDEQLKSGTASVVCLLNNFYPREAKVQWKVDNALQSGNSQESVTEQDSKDSTYSLSSTLTLSKADYEKHKVYACEVTHQGLSSPVTKSFNRGEC", "notes": "humanized anti-CGRP antagonist antibody, vectors ATCC PTA-6867 and PTA-6866"}}, "key": {"[1]": {"tested_on": "first-order trigeminovascular neurons (A-delta and C-type meningeal nociceptors)", "test": "Single-unit recording of first-order trigeminovascular neurons in the trigeminal ganglion activated by CSD", "format": "in vivo, rat", "description": "CSD was induced by pinprick 4 hours after drug/isotype infusion."}, "[2]": {"target": "T1, human α-CGRP fragments and variants (Homo sapiens, UniProt P06881)", "T1 construct": "host or cells: synthetic peptides", "test": "Biacore affinity of G1 Fab to human α-CGRP fragments and variants on chip", "format": "binding", "conditions": "CGRP on chip: 38A (25-38A), 37° C.", "description": "Biacore assay for affinity determination. […] All Biacore assays were conducted in HBS-EP running buffer (10 mM HEPES pH 7.4, 150 mM NaCl, 3 mM EDTA, 0.005% v/v polysorbate P20). CGRP surfaces were prepared by diluting the N-biotinylated CGRP to a concentration of less than 0.001 mg/mL into HBS-EP buffer and injecting it across the SA sensor chip using variable contact times. Low capacity surfaces, corresponding to capture levels <50 response units (RU) were used for high-resolution kinetic studies, whereas high capacity surfaces (about 800 RU of captured CGRP) were used for concentration studies, screening, and solution affinity determinations. […] Samples were typically injected for lminute at 100 μL/min and dissociation times of at least 10 minutes were allowed. After each binding cycle, surfaces were regenerated with 25 mM NaOH in 25% v/v ethanol, which was tolerated over hundreds of cycles. An entire titration series (typically generated in duplicate) was fit globally to a 1:1 Langmuir binding model using the BlAevaluation program. This returned a unique pair of association and dissociation kinetic rate constants (respectively, kon and koff) for each binding interaction, whose ratio gave the equilibrium dissociation constant (KD=koff/[…])."}, "[3]": {"tested_on": "central trigeminovascular neurons in the medullary dorsal horn", "test": "Activation of central trigeminovascular neurons by picrotoxin-induced seizure", "format": "in vivo, rat", "conditions": "30 mg/kg intravenously four hours before induction of seizure", "from_the_text": "Cortical electrodes were used to trace the magnitude, extent and progression of epileptiform seizures.\nSurgical preparation and single-unit recording. Single-unit recordings were obtained from neurons in the trigeminal ganglion and dorsal horn as described in previous studies (Burstein et al. (1998) J. Neurophysiol. 79: 964-82; Strassman and Levy (2006) J. Neurophysiol. 95: 1298-306; Strassman et al. (1996) Nature 384: 560-4; Zhang et al. (2010) J. Neurosci. 30: 8807-14; and Zhang et al. (2011) Ann. Neurol. 69: 855-65). Experiments were done in adult Sprague-Dawley rats (250 g to 350 g). Animals were anesthetized with urethane (1.2-1.5 g/kg), artificially ventilated with oxygen, and paralyzed. Body temperature was controlled, and end-tidal CO2 and oxygen saturation was monitored. For ganglion recordings, four separate craniotomies were made: over the contralateral cortex, to advance the microelectrode; over the ipsilateral parietal cortex, and the ipsilateral occipital cortex, for application of the picrotoxin and recording of electrocorticogram activity; and over the ipsilateral transverse sinus, for electrical and mechanical stimulation of dural afferents, and lidocaine application. For dorsal horn recording, the same craniotomies were made over the ipsilateral cortex and the ipsilateral transverse sinus, but no contralateral craniotomy was made. Instead, a laminectomy was made to expose the upper cervical spinal cord (C1-2) for microelectrode recording. In both the trigeminal ganglion and the dorsal horn recording experiments, the search stimulus for finding dura-sensitive neurons is single-shock electrical stimulation applied to the dura covering the transverse sinus.\nSeizure induction and electrocorticogram recording. […] For verification of seizure induction, cortical activity was recorded with a glass micropipette (0.9% saline, ˜1 megohm, 7 μm tip) placed just below the surface of the cerebral cortex, at the parietal and the occipital site. […]"}}, "data": [{"molecule": "B1", "values": [{"measurement": "activation of meningeal nociceptors by CSD", "setting": "[1]; FIGS. 20A and 20B", "result": "prevents the activation of most a-delta and some C-type meningeal nociceptors"}, {"measurement": "a-delta fibers activated by CSD", "setting": "[1]; male rats, 30 mg/kg IV 4 hours before CSD, FIG. 21A", "result": 14, "unit": "%"}, {"measurement": "C-fibers activated by CSD", "setting": "[1]; male rats, 30 mg/kg IV 4 hours before CSD, FIG. 21B", "result": 23, "unit": "%"}, {"measurement": "neurons tested that were activated by CSD", "setting": "[1]; male rats, 30 mg/kg IV 4 hours before CSD, all neurons", "result": 20, "unit": "%"}, {"measurement": "KD", "setting": "[2]", "result": "No binding"}, {"measurement": "neurons activated by the seizure", "setting": "[3]", "result": 15, "unit": "%"}, {"measurement": "neurons activated by the seizure (activated/tested)", "setting": "[3]", "result": "2/13"}, {"measurement": "activation of central trigeminovascular neuron by seizure", "setting": "[3]; FIG. 24", "result": "prevented the activation of a central trigeminovascular neuron"}]}]}
